Test results reported in US20150087812A1 (Janssen / Centocor, published 2015).
Where a chain is given by its changes, count along the chain named. One block for each binder: values may come before it.

Tests used:
[1] = target: T1, recombinant human ATX beta isoform with N-terminal purification tag (human, UniProt Q13822 49-863); assay: Fab-His ELISA
Experimental: (§1) Fabs were captured on black MaxiSorp plates (Nunc, Cat. No. 437111) coated with 1 μg/ml sheep anti-human Fd (CH1) antibody (The Binding Site, Cat. No. PC075). Plates were washed and biotinylated human ATX was added to the captured Fabs at 5 nM. Incubation was carried out for 1 hour at room temperature with gentle shaking. Plates were washed, SA-HRP (Invitrogen, Cat. No. 43-4323) was added and chemiluminescent detection carried out.
(§2) Clones with binding above background were sequenced and unique clones identified. […] These clones were identified with binding signal to human ATX at least 6-fold above the background. Table 3 lists the identifier for VH and VL (Peptide ID) and the combination of both (Fab ID) sorted by the Fab ELISA binding data.

[2] = target: T1, recombinant human ATX beta isoform with …; assay: ELISA, Fab-His captured by anti-Fd, 5 nM biotinylated human ATX beta
Experimental: as §1, §2

B2: Fab F90 (VH H83, VL L83) (Fab, V domains shown)
VH: QVQLVQSGAEVKKPGSSVKVSCKASGGTFSSYAISWVRQAPGQGLEWMGGIIPIFGTANYAQKFQGRVTITADESTSTAYMELSSLRSEDTAVYYCARGEANEVYPGLDYWGQGTLVTVSS
VL: EIVLTQSPGTLSLSPGERATLSCRASQSVSKSALAWYQQKPGQAPRLLIYNASSRATGIPDRFSGSGSGTDFTLTISRLEPEDFAVYYCQQSNKDPLTFGQGTKVEIK
notes: Soluble Fab-His
- fold above background [1]: ≥ 6 fold
- Fab Binding [2]: 1.7e+06 relative chemiluminescence units

B5: Fab F33 (VH H24, VL L35) (Fab, V domains shown)
VH: not shown
VL: DIQMTQSPSSLSASVGDRVTITCRASQSIHNWLNWYQQKPGKAPKLLIYAASSLQSGVPSRFSGSGSGTDFTLTISSLQPEDFATYYCQQSYSTPLTFGQGTKVEIK
notes: Soluble Fab-His; converted to mAb B15; the Fab's H24 may differ in FR1
- fold above background [1]: ≥ 6 fold
- Fab Binding [2]: 1.1e+06 relative chemiluminescence units

B6: Fab F16 (VH H10, VL L13) (Fab, V domains shown)
VH: EVQLVQSGAEVKKPGESLKISCKGSGYSFTSYWIGWVRQMPGKGLEWMGIIYPGDSDTRYSPSFQGQVTISADKSISTAYLQWSSLKASDTAMYYCARGLADFWYFDYWGQGTLVTVSS
VL: B5 VL with H30D, N31V
notes: Soluble Fab-His; converted to mAb B2
- fold above background [1]: ≥ 6 fold
- Fab Binding [2]: 3.9e+06 relative chemiluminescence units

B7: Fab F67 (VH H60, VL L61) (Fab, V domains shown)
VH: QVQLVQSGAEVKKPGSSVKVSCKASGGTFSSYAISWVRQAPGQGLEWMGGIIPIFGTANYAQKFQGRVTITADESTSTAYMELSSLRSEDTAVYYCARIARYARGYMHTFDYWGQGTLVTVSS
VL: B5 VL with H30S, N31S, W32Y, S91H, Y92L, T94I, L96I
notes: Soluble Fab-His; converted to mAb B10
- fold above background [1]: ≥ 6 fold
- Fab Binding [2]: 8.8e+06 relative chemiluminescence units

B10: Fab F72 (VH H65, VL PH9L1) (Fab, V domains shown)
VH: B2 VH with E100D, E103S, V104I, G107L, L108F
VL: not shown
notes: Soluble Fab-His
- fold above background [1]: ≥ 6 fold
- Fab Binding [2]: 1.6e+06 relative chemiluminescence units

B11: Fab F54 (VH H44, VL IFWL195) (Fab, V domains shown)
VH: not shown
VL: B5 VL with H30A
notes: Soluble Fab-His; converted to mAb B17; the Fab's H44 may differ in FR1
- fold above background [1]: ≥ 6 fold
- Fab Binding [2]: 980000 relative chemiluminescence units

B14: Fab F69 (VH H63, VL L63) (Fab, V domains shown)
VH: QVQLVQSGAEVKKPGSSVKVSCKASGGTFSSYAISWVRQAPGQGLEWMGGIIPIFGTANYAQKFQGRVTITADESTSTAYMELSSLRSEDTAVYYCARDDDVNSLASYPLDYWGQGTLVTVSS
VL: EIVLTQSPATLSLSPGERATLSCRASQSVSKALAWYQQKPGQAPRLLIYYASNRATGIPARFSGSGSGTDFTLTISSLEPEDFAVYYCQQYKNAPRTFGQGTKVEIK
notes: Soluble Fab-His
- fold above background [1]: ≥ 6 fold
- Fab Binding [2]: 2e+06 relative chemiluminescence units

B16: Fab F135 (VH H138, VL L118) (Fab, V domains shown)
VH: QVQLVQSGAEVKKPGSSVKVSCKASGGTFSSYAISWVRQAPGQGLEWMGGIIPIFGTANYAQKFQGRVTITADESTSTAYMELSSLRSEDTAVYYCARDFLSQFSWLDYWGQGTLVTVSS
VL: B2 VL with K31S, A33Y, N51G, N93S, K94G, D95F
notes: Soluble Fab-His
- fold above background [1]: ≥ 6 fold
- Fab Binding [2]: 2e+06 relative chemiluminescence units

B17: Fab F126 (VH H123, VL L110) (Fab, V domains shown)
VH: QVQLVQSGAEVKKPGSSVKVSCKASGGTFSSYAISWVRQAPGQGLEWMGGIIPIFGTANYAQKFQGRVTITADESTSTAYMELSSLRSEDTAVYYCARDRYYFTVLDYWGQGTLVTVSS
VL: B2 VL with K31S, A33Y, N51G, S92A, N93T, K94A, D95F
notes: Soluble Fab-His; converted to mAb B12
- fold above background [1]: ≥ 6 fold
- Fab Binding [2]: 2.4e+06 relative chemiluminescence units

B23: Fab F68 (VH H62, VL L62) (Fab, V domains shown)
VH: B17 VH with A33G, A58T, R100W, Y101W, Y102V, F103T, T104D, V105I
VL: B2 VL with K31S, A33Y, N51G, K94T, D95N
notes: Soluble Fab-His
- fold above background [1]: ≥ 6 fold
- Fab Binding [2]: 1.8e+06 relative chemiluminescence units

B25: Fab F63 (VH H55, VL L57) (Fab, V domains shown)
VH: QVQLVQSGAEVKKPGSSVKVSCKASGGTFSSYGISWVRQAPGQGLEWMGGIIPIFGTANYAQKFQGRVTITADESTSTAYMELSSLRSEDTAVYYCARRDGNYLHVDHFDYWGQGTLVTVSS
VL: B14 VL with S30A, K31S, Y50K, Y91G, K92G, A94W, R96W
notes: Soluble Fab-His
- fold above background [1]: ≥ 6 fold
- Fab Binding [2]: 980000 relative chemiluminescence units

B26: Fab F5 (VH H4, VL L4) (Fab, V domains shown)
VH: EVQLVQSGAEVKKPGESLKISCKGSGYSFTSYWIGWVRQMPGKGLEWMGIIYPGDSDTRYSPSFQGQVTISADKSISTAYLQWSSLKASDTAMYYCARNWSEALYVVFDYWGQGTLVTVSS
VL: B14 VL with S30A, K31N, A32F, K92F, N93S, R96F
notes: Soluble Fab-His; converted to mAb B1
- fold above background [1]: ≥ 6 fold
- Fab Binding [2]: 3.8e+06 relative chemiluminescence units

Results, then the binder that gave them:

- fold above background [1]: ≥ 6 fold
- Fab Binding [2]: 1.3e+06 relative chemiluminescence units
B1: Fab F142 (VH H146, VL L121) (Fab, V domains shown)
VH: B2 VH with E100D, A101Y, E103A, V104I, P106Y, G107A
VL: B5 VL with H30S, N31S, W32Y, S91P, Y92I, T94F, L96Y
notes: Soluble Fab-His

- fold above background [1]: ≥ 6 fold
- Fab Binding [2]: 1.9e+06 relative chemiluminescence units
B3: Fab F116 (VH H108, VL L100) (Fab, V domains shown)
VH: B2 VH with G99S, E100D, A101L, E103N, Y105S, P106T, G107V
VL: B5 VL with H30G, N31K, W32V, A50G, S91P, Y92I
notes: Soluble Fab-His

- fold above background [1]: ≥ 6 fold
- Fab Binding [2]: 970000 relative chemiluminescence units
B4: Fab F105 (VH H97, VL L93) (Fab, V domains shown)
VH: B2 VH with A33G, E100D, A101D, Y105I, P106Y, G107H
VL: B2 VL with S30A, A33D, N51T, S92D, N93Y, K94G, D95Y
notes: Soluble Fab-His

- fold above background [1]: ≥ 6 fold
- Fab Binding [2]: 2.2e+06 relative chemiluminescence units
B8: Fab F130 (VH H129, VL L113) (Fab, V domains shown)
VH: B2 VH with G99D, E100H, A101G, N102Y, E103A, V104Y, P106S, G107A, L108F
VL: B2 VL with K31S, A33Y, N51G, N93S, K94R, L97W
notes: Soluble Fab-His

- fold above background [1]: ≥ 6 fold
- Fab Binding [2]: 1.8e+06 relative chemiluminescence units
B9: Fab F117 (VH H110, VL L103) (Fab, V domains shown)
VH: B2 VH with G99A, E100D, E103Q, V104L, Y105S, P106G, G107Y
VL: B5 VL with H30G, N31R, W32S, S91P, Y92F, S93D, T94Y, L96F
notes: Soluble Fab-His

- fold above background [1]: ≥ 6 fold
- Fab Binding [2]: 1.9e+06 relative chemiluminescence units
B12: Fab F100 (VH H93, VL PH9L1) (Fab, V domains shown)
VH: B17 VH with T57N, A58T, D99H, R100Y, Y101L, Y102P, F103D, T104A, V105T
VL: not shown
notes: Soluble Fab-His

- fold above background [1]: ≥ 6 fold
- Fab Binding [2]: 1.2e+06 relative chemiluminescence units
B13: Fab F133 (VH H134, VL L117) (Fab, V domains shown)
VH: B14 VH with D99G, D100A, V102S, S104A, L105V, A106R, S107L, Y108V, P109G, L110F
VL: B2 VL with S30A, K31Y, A33S, N51A, K94T, D95P
notes: Soluble Fab-His

- fold above background [1]: ≥ 6 fold
- Fab Binding [2]: 1.2e+06 relative chemiluminescence units
B15: Fab F144 (VH H149, VL L122) (Fab, V domains shown)
VH: QVQLVQSGAEVKKPGSSVKVSCKASGGTFSSYGISWVRQAPGQGLEWMGGIIPIFGTANYAQKFQGRVTITADESTSTAYMELSSLRSEDTAVYYCAREDVNYISTYSEFDYWGQGTLVTVSS
VL: B2 VL with S30R, A33G, S92A, N93T, D95P
notes: Soluble Fab-His

- fold above background [1]: ≥ 6 fold
- Fab Binding [2]: 1.9e+06 relative chemiluminescence units
B18: Fab F122 (VH H119, VL L108) (Fab, V domains shown)
VH: B16 VH with F100G, L101V, S102T, Q103T, F104Y, S105D, W106Y, L107F
VL: B2 VL with K31S, A33Y, N51G, N93S, K94R, D95Y, L97W
notes: Soluble Fab-His

- fold above background [1]: ≥ 6 fold
- Fab Binding [2]: 2.6e+06 relative chemiluminescence units
B19: Fab F118 (VH H111, VL L104) (Fab, V domains shown)
VH: B17 VH with A33G, R100D, Y101L, Y102P, F103L, T104G, V105M
VL: B2 VL with K31S, A33Y, N51G, S92Y, N93T, K94A, D95F
notes: Soluble Fab-His; converted to mAb B11

- fold above background [1]: ≥ 6 fold
- Fab Binding [2]: 1.8e+06 relative chemiluminescence units
B20: Fab F128 (VH H127, VL L111) (Fab, V domains shown)
VH: B17 VH with T57N, D99G, R100F, Y101V, Y102N, T104S, V105R
VL: B2 VL with K31S, A33Y, N51G, S92D, N93S, K94A, D95F, L97W
notes: Soluble Fab-His

- fold above background [1]: ≥ 6 fold
- Fab Binding [2]: 1.9e+06 relative chemiluminescence units
B21: Fab F78 (VH H73, VL L73) (Fab, V domains shown)
VH: B17 VH with D99G, R100T, Y101F, Y102T, F103Y, T104D, V105F
VL: B2 VL with K31S, A33Y, N51G, N93S, K94R, D95F, L97W
notes: Soluble Fab-His

- fold above background [1]: ≥ 6 fold
- Fab Binding [2]: 1.7e+06 relative chemiluminescence units
B22: Fab F74 (VH H68, VL L68) (Fab, V domains shown)
VH: B14 VH with D100G, L105V, A106Y, Y108S, P109G
VL: B14 VL with S30N, A32F, Y50F, K92N, N93H, R96F
notes: Soluble Fab-His

- fold above background [1]: ≥ 6 fold
- Fab Binding [2]: 1.6e+06 relative chemiluminescence units
B24: Fab F93 (VH H86, VL L79) (Fab, V domains shown)
VH: B17 VH with R100T, Y101F, Y102W, L106F
VL: B2 VL with K31S, A33Y, N51G, K94T, D95L
notes: Soluble Fab-His
